# ± gives the uncertainty stated by the source.
# Assay: amyloid nucleation score (Sup35N fusion, yeast selection) (log enrichment); library NNK1; higher = more nucleation; inactive = no reads after selection
# Summary of the method: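 Nucleation score is defined as the DiMSum log enrichment of output over input reads, with centring on the mode score of non-aggregating sequences. A minimum of 100 input reads was required for each sequence. Reads came from Illumina sequencing of plasmid inserts from psi-negative yeast expressing Sup35N fused to peptides of 20 random codons, induced with 100 μM copper sulfate for 24 hours and grown 7 days at 30°C on medium lacking adenine and uracil.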
row,Substance,amyloid nucleation score
1,GVSMFHRFSSHNWMCCWFVG,7.654 ± 0.064
2,GVTLYRRGIFGMSL,0.338 ± 0.66
3,GVVLGYRCLNMGLKALWSYV,-0.248 ± 0.48
4,GVWLVSDRKVADVRSNYCFD,-2.18 ± 2.7
5,GWFAR,-0.191 ± 0.57
6,GWIGCHDWGLRLIAHKMRGR,0.938 ± 0.88
7,GWLIR,inactive
8,GWRNGKCFDGASPEWVLGHA,-0.39 ± 1.2
9,GWVLCRGSLFIWWFWTSLRL,-0.106 ± 1.2
10,GYACTFVLA,0.136 ± 0.51
11,GYCLVYLAIGGFARILGYPV,-0.461 ± 1.1
12,GYEHVKG,-0.195 ± 0.46
13,GYFLPGFEMLCYNRRIWYIM,-1.03 ± 0.61
14,GYNGCYNIFVHRSDKMAALR,0.515 ± 0.59
15,GYNKHLGNSGSYVHQNGAQF,1.06 ± 0.39
16,GYRHRYQQTKGIVTHSMYFD,1.27 ± 0.9
17,GYTKILMRHSNFCMTK,0.428 ± 0.19
18,HAGFGFVSSCCYLHWLTGDR,3.98 ± 0.095
19,HALEKLDKFRFTAS,0.484 ± 0.64
20,HCRNS,2 ± 0.3
21,HCSSVQFPRTGVIEVALQKD,-0.17 ± 0.57
22,HCTRINVHFYNIYTVLVSFS,5.33 ± 0.073

row,Substance,amyloid nucleation score
1,HCWFRSWPWTISK,-0.913 ± 1.5
2,HDASSFSLMRKFRCGC,0.333 ± 0.69
3,HDNISLG,3.39 ± 0.12
4,HDREDWGDQSWYFILAWIFK,-0.745 ± 0.44
5,HECRWRTVYNQ,0.786 ± 0.93
6,HESYVVRIYIFEDRRYLCEV,0.037 ± 0.6
7,HFHNSCLYIGRVHIGHTLGV,7.826 ± 0.052
8,HFVAVFMFYGWPSWYSYSES,-0.93 ± 0.35
9,HGHENVDWQKITDIGGRENC,-0.715 ± 1.9
10,HGLVNG,0.437 ± 0.52
11,HGMIRWYSYTSCHSYKVSGH,-0.021 ± 0.33
12,HGSECSWRLLLRHPLMGTSG,-0.089 ± 0.49
13,HGSVRSLSYRLVSLYLSRMC,0.748 ± 0.45
14,HGYSNNVARYWA,0.372 ± 1.4
15,HHAFFDIPRVRGEYECFAGI,0.192 ± 0.25
16,HHDMGSFFAVQSTSGTEGMG,-0.099 ± 0.37
17,HHVIRVDIMMFVVKSSELYN,inactive
18,HICSRDVLLRQY,1.41 ± 0.8
19,HILSSVLHSGVCMWTVITPY,0.72 ± 0.71
20,HILYKRFFFGSCSSGCHL,-0.428 ± 0.47
21,HINFIYRLRSFLQSCKNFSS,-1.23 ± 2.1
22,HITMRLFTPYLTYNMPMSLK,0.063 ± 0.24

row,Substance,amyloid nucleation score
1,HIVVFKYVCYSHEAVYWRPE,0.305 ± 1.2
2,HKFVRIDGEN,1.54 ± 0.84
3,HKIDINSVLLLKCVVYVGCL,4.12 ± 0.066
4,HKRAEKHNHFITWSIQSLRA,0.653 ± 0.33
5,HKSILVDVILSHFSSCSRCH,5.3 ± 0.074
6,HLDCGCRTFGLTWYWTKDCV,-0.143 ± 0.49
7,HLHFTILY,2.55 ± 0.28
8,HLRKVGYSIYLFSR,3.83 ± 0.057
9,HLSALLANSNLNKM,-0.359 ± 0.52
10,HLSLVNFCMSVSLESWYEWM,0.819 ± 0.44
11,HLSYI,-0.455 ± 1.7
12,HLTKRGLSQTKRSAALQRVG,0.514 ± 1.2
13,HLYLRITTVG,1.49 ± 0.76
14,HMLIFYSGLCKPSFVYYLLY,1.04 ± 0.58
15,HMNRVSGVMVVLSRGLAGMN,2.67 ± 0.23
16,HMNVPIDRSLGSFFFAKVMK,0.867 ± 0.2
17,HMRMGLGRLVHLWYWPTRDT,0.153 ± 0.56
18,HMRTNKVFPCYPWPFTYTPP,inactive
19,HMSGFWM,-0.856 ± 1.7
20,HMSHMLLQIYLWLVFWSSGV,1.42 ± 0.66
21,HNIKVAGQMYANKSRICTSM,0.412 ± 0.47
22,HNWCYQNKGHVRGNKLCFRY,-0.112 ± 0.63

row,Substance,amyloid nucleation score
1,HNYVGDTLGVMSCWPTTRFP,0.087 ± 0.87
2,HNYVWCSPC,7.694 ± 0.07
3,HPLVGQELKDWNNELYVHVL,0.534 ± 0.79
4,HPQVTWGSRLAVNFCAWCYG,4.5 ± 0.054
5,HPQYMLPT,0.569 ± 0.32
6,HPRMCWVPVISIIPLLSVMA,0.185 ± 0.41
7,HQNRDIIMMMSFCAGNTGYK,4.98 ± 0.12
8,HQVNSGDLSNMVLCLMLIRW,1.84 ± 0.19
9,HRCPLTGFSSL,0.022 ± 0.45
10,HREMMWQGKRV,inactive
11,HRFDW,1.07 ± 0.48
12,HRILRESRAGRF,-0.396 ± 0.36
13,HRLDLSCSWNMNKVRGDWCS,-0.058 ± 0.27
14,HRQLWC,-1.96 ± 2.1
15,HRRNMAKC,inactive
16,HRSVGSRECRSSSEFYVLR,3.77 ± 0.088
17,HRTDRCVVMLHWPWIF,-0.025 ± 0.56
18,HSCEPVMLVLNMNR,8.159 ± 0.072
19,HSDSNWIVDVLHSLYDKWLV,0.913 ± 0.5
20,HSFGKTFGDCYRRHSYLVNE,-0.437 ± 0.41
21,HSGSAE,-1.28 ± 1.3
22,HSLGLANYFTSHEGLVGTF,inactive

# Reference: the supplement of paper PMC12042874
